Data: patent publication US20110118131A1 (published 2011)
Substitutions are numbered along the chain they refer to. Names may count otherwise.

B1: XPA23 light chain L96Y (Fab, V domains shown)
VH: EVQLLESGGGLVQPGGSLRLSCAASGFTFSKYFMFWVRQAPGKGLEWVSVISPSGGMTRYADSVKGRFTISRDNSKNTLYLQMNSLRAEDTAVYYCARVGYGGNSDYWGQGTLVTVSS
VL: DIQMTQSPSSVSASVGDRLTIICRASQDINRWLAWYQQTPGNAPKLLIHSATSLQSGVPSRFSGSGSGTDFTLTINSLQPEDFATYYCQQADSFPYTFGGGTKVEIK
B2: XPA23 light chain Q27N (Fab, V domains shown)
VH: B1 VH
VL: B1 VL with Q27N, Y96L
B3: XPA23 light chain Q27K (Fab, V domains shown)
VH: B1 VH
VL: B1 VL with Q27K, Y96L
B4: XPA23 light chain N30K (Fab, V domains shown)
VH: B1 VH
VL: B1 VL with N30K, Y96L
B5: XPA23 light chain N30H (Fab, V domains shown)
VH: B1 VH
VL: B1 VL with N30H, Y96L
B6: XPA23 light chain Q27H (Fab, V domains shown)
VH: B1 VH
VL: B1 VL with Q27H, Y96L
B7: XPA23 light chain Q27I (Fab, V domains shown)
VH: B1 VH
VL: B1 VL with Q27I, Y96L
B8: XPA23 light chain Q27P (Fab, V domains shown)
VH: B1 VH
VL: B1 VL with Q27P, Y96L
B9: XPA23 light chain N30Q (Fab, V domains shown)
VH: B1 VH
VL: B1 VL with N30Q, Y96L
B10: XPA23 light chain N30V (Fab, V domains shown)
VH: B1 VH
VL: B1 VL with N30V, Y96L
B11: XPA23 light chain N30F (Fab, V domains shown)
VH: B1 VH
VL: B1 VL with N30F, Y96L
B12: XPA23 light chain Q27D (Fab, V domains shown)
VH: B1 VH
VL: B1 VL with Q27D, Y96L
B13: XPA23 light chain N30R (Fab, V domains shown)
VH: B1 VH
VL: B1 VL with N30R, Y96L
B14: XPA23 light chain P95N (Fab, V domains shown)
VH: B1 VH
VL: B1 VL with P95N, Y96L
B15: XPA23 light chain N30P (Fab, V domains shown)
VH: B1 VH
VL: B1 VL with N30P, Y96L
B16: XPA23 light chain Q27S (Fab, V domains shown)
VH: B1 VH
VL: B1 VL with Q27S, Y96L
B17: XPA23 light chain N30G (Fab, V domains shown)
VH: B1 VH
VL: B1 VL with N30G, Y96L
B18: XPA23 light chain N30A (Fab, V domains shown)
VH: B1 VH
VL: B1 VL with N30A, Y96L
B19: XPA23 light chain N30Y (Fab, V domains shown)
VH: B1 VH
VL: B1 VL with N30Y, Y96L
B20: XPA23 light chain Q27L (Fab, V domains shown)
VH: B1 VH
VL: B1 VL with Q27L, Y96L
B21: XPA23 light chain P95F (Fab, V domains shown)
VH: B1 VH
VL: B1 VL with P95F, Y96L
B22: XPA23 light chain Q27E (Fab, V domains shown)
VH: B1 VH
VL: B1 VL with Q27E, Y96L
B23: XPA23 light chain Q27W (Fab, V domains shown)
VH: B1 VH
VL: B1 VL with Q27W, Y96L
B24: XPA23 light chain P95H (Fab, V domains shown)
VH: B1 VH
VL: B1 VL with P95H, Y96L
B25: XPA23 light chain N30D (Fab, V domains shown)
VH: B1 VH
VL: B1 VL with N30D, Y96L
B26: XPA23 light chain P95S (Fab, V domains shown)
VH: B1 VH
VL: B1 VL with P95S, Y96L
B27: XPA23 light chain N30L (Fab, V domains shown)
VH: B1 VH
VL: B1 VL with N30L, Y96L
B28: XPA23 light chain N30E (Fab, V domains shown)
VH: B1 VH
VL: B1 VL with N30E, Y96L
B29: XPA23 light chain Q27R (Fab, V domains shown)
VH: B1 VH
VL: B1 VL with Q27R, Y96L
B30: XPA23 light chain P95R (Fab, V domains shown)
VH: B1 VH
VL: B1 VL with P95R, Y96L
B31: XPA23 light chain P95Q (Fab, V domains shown)
VH: B1 VH
VL: B1 VL with P95Q, Y96L
B32: XPA23 light chain Q27T (Fab, V domains shown)
VH: B1 VH
VL: B1 VL with Q27T, Y96L
B33: XPA23 light chain N30I (Fab, V domains shown)
VH: B1 VH
VL: B1 VL with N30I, Y96L
B34: XPA23 light chain N30S (Fab, V domains shown)
VH: B1 VH
VL: B1 VL with N30S, Y96L
B35: XPA23 light chain P95K (Fab, V domains shown)
VH: B1 VH
VL: B1 VL with P95K, Y96L
B36: XPA23 light chain Q27A (Fab, V domains shown)
VH: B1 VH
VL: B1 VL with Q27A, Y96L
B37: XPA23 light chain P95E (Fab, V domains shown)
VH: B1 VH
VL: B1 VL with P95E, Y96L
B38: XPA23 light chain N30T (Fab, V domains shown)
VH: B1 VH
VL: B1 VL with N30T, Y96L
B39: XPA23 light chain P95W (Fab, V domains shown)
VH: B1 VH
VL: B1 VL with P95W, Y96L
B40: XPA23 light chain Q27F (Fab, V domains shown)
VH: B1 VH
VL: B1 VL with Q27F, Y96L
B41: XPA23 light chain Q27G (Fab, V domains shown)
VH: B1 VH
VL: B1 VL with Q27G, Y96L
B42: XPA23 light chain P95D (Fab, V domains shown)
VH: B1 VH
VL: B1 VL with P95D, Y96L
B43: XPA23 light chain Q27V (Fab, V domains shown)
VH: B1 VH
VL: B1 VL with Q27V, Y96L
B44: XPA23 light chain P95Y (Fab, V domains shown)
VH: B1 VH
VL: B1 VL with P95Y, Y96L
B45: XPA23 light chain N30W (Fab, V domains shown)
VH: B1 VH
VL: B1 VL with N30W, Y96L

molecular target: T1, IL-1β (UniProt P01584 117-269); assay: Biacore, periplasmic extract
T1 construct: Antigen immobilised on the Biacore chip

binding result | fold difference in affinity vs original | Binder
no binding | – | B1
no binding | – | B2
no binding | – | B3
– | 0.61 fold | B4
– | 1 fold | B5
– | 1.09 fold | B6
– | 0.82 fold | B7
no binding | – | B8
– | 0.6 fold | B9
– | 0.89 fold | B10
– | 1.59 fold | B11
– | 1.07 fold | B12
– | 0.74 fold | B13
no binding | – | B14
– | 0.69 fold | B15
– | 3.3 fold | B16
– | 0.71 fold | B17
– | 0.61 fold | B18
– | 1.4 fold | B19
– | 0.83 fold | B20
– | 0.98 fold | B21
– | 1.08 fold | B22
no binding | – | B23

binding result | fold difference in affinity vs original | Binder
no binding | – | B24
– | 0.81 fold | B25
– | 4.05 fold | B26
– | 0.68 fold | B27
– | 0.64 fold | B28
– | 0.89 fold | B29
no binding | – | B30
no binding | – | B31
– | 0.64 fold | B32
– | 0.65 fold | B33
– | 0.72 fold | B34
no binding | – | B35
– | 1.47 fold | B36
– | 0.88 fold | B37
– | 0.97 fold | B38
no binding | – | B39
– | 2.96 fold | B40
no binding | – | B41
– | 1.32 fold | B42
no binding | – | B43
no binding | – | B44
– | 1.06 fold | B45
